Reference: US8688427B2, “Enzyme catalysts for diels-alder reactions” (University of Washington, priority 2008, dated 2014)

How the values were obtained:
Type in all cases: biochemical
Turnover number = settings: high substrate concentrations: 3 mM diene, 100 mM dienophile, 25 μM enzyme, PBS, 298K
Method: The reaction was carried out in 3 mM diene, 100 mM dienophile, 25 μM enzyme, in PBS at 298K. Turnover number was calculated by subtracting the product formed in the background reaction from the product formed in the enzymatic reaction. This enzyme-produced product was then divided by the protein concentration to determine turnover number.
To quantify the number of turnovers reached before the DA—20—10 was inactivated, a reaction was setup with 25 μM enzyme, 3 mM diene, 100 mM dienophile in a PBS solution and incubated for 160 hours. Time points were taken, quenched, and filtered, and then analyzed using the liquid chromatography mass-spectroscopy assay. A standard curve ranging from 4 mM to 0.03 mM was used to quantify the amount of product produced.

[1] = Diels-Alder activity assay with purified protein, LC-MSMS product detection; settings: 0.1 mM diene, 3 mM dienophile, PBS, 298K, 20 μM protein
Method: The observed velocity for each mutant was normalized by the velocity of DA—20—00 in order to determine the effective rate enhancement conferred by each mutation. The reactions were done at 1 mM diene, and 10 mM dienophile, PBS, 298K, and 100 μM protein.
Mutations showing enhanced activity on DA—20—04 were sequenced, grown large scale, and assayed. The assay was done at 0.1 mM dieine, 3 mM dienophile, PBS, 298K, and 20 μM protein.
The Diels-Alder reactions were performed in PBS, at 25° C., with 4% DMSO. The DMSO came from the diene, for which the stock solution (100 mM) was made in DMSO and always diluted such that the final reaction would contain 4% DMSO. After incubation of the desired amount of diene and dienophile in the presence or absence of the protein, time points were taken of the reaction (5 μL) and quenched in a solution of 80:20 acetonitrile:water with 0.1% formic acid and 1 mM Benzoic Acid (95 μL). This reaction was incubated for 5 minutes and then the precipitated protein filtered using a Millipore multiscreen solvinert filter plate (Product Number: MSRLN0450). 20 μL of the filtered quench solution was then injected and analyzed using a liquid chromatography-tandem mass spectroscopy (LC-MSMS) assay.
A total of 43 variants were assayed using the standard activity assay. The observed activities are described in Table 2. In Table 2, the Expression column provides the number of times the mutant was expressed; the Observed column reports the raw signal level out of the mass-spec for the product (the Observed column is not normalized nor background corrected); the Concentration column provides the concentration of the protein after large-scale expression. […]

[2] = Production run and effects of knocking out the catalytic residues; settings: higher enzyme concentrations: 1 mM diene, 50 mM dienophile, 200 μM protein, PBS, 298K
Method: The reaction was carried out in 1 mM diene, 50 mM dienophile, 200 μM enzyme, in PBS at 298K. The proteins assayed are DA—20—10 (υ), Y121F (▴), Q195E (x), and tela scaffold (*), uncatalyzed (λ).
To determine whether the observed activity depends on the designed active site, we investigated the contributions of the designed catalytic residues in DA—20—10 to catalysis. Glutamine 195 was mutated into a glutamate (Q195E) and tyrosine 121 was mutated into a phenylalanine (Y121F). We had originally incorporated a glutamine rather than a glutamate at this position, despite the fact that the carboxylate should make a stronger hydrogen bond with the diene carbamate. This hydrogen bond should increase the energy of the diene HOMO (and thus decrease the energy gap with the dienophile LUMO), and more greatly stabilize the transition state. However, we were concerned that the substantial free energy cost of desolvating the carboxylate would considerably reduce binding affinity for the diene. […] The Y121F mutation decreases catalytic activity by 27-fold, consistent with the removal of a hydrogen bond that contributes to dienophile binding, stabilizes the dienophile LUMO, and is enhanced in the transition state.
Timepoints were taken and measured as previously described over a period of 60 hours.

B1: DA_20_10: DA_20_04 with A272N, Q149R, A173C (protein)
chain: MEIPVIEPLFTKVTEDIPGATGPVFDKNGDFYIVAPYVEVNGKPAGEILRIDLKTGKKTVICKPEVNGYGGIPIGCQCDRDANQLFVADMRLGLLVVQTDGTFEEIAKKDSEGRRMQGCAYCAFDYEGNLWITAPAGEVAPADFTISLREKFGSIYCFTTDGQMIQVDTAFQCPAGIAVRHMNDGRPYQLIVAEQPTKKLWSYDIKGPAKIENKKVWGHIPGTHKGGAAGMDFDEDNNLLVANWGSSHIEVFGPDGGQPKMRIRCPFEKPANLHFKPQTKTIFVTEHENNAVWKFEWQRNGKKQYCETLKFGIFGSLEHHHHHH
modifications: Enzyme catalyst for Diels-Alder reaction
notes: DA_20_04 with A272N, Q149R, A173C
Turnover number
  turnovers before the enzyme loses activity: more than 30 turnovers
[1]
  product formed per hour: 154.9 nM of product/hour
[2]
  diene substrate converted to product: more than 80%
